From paper PMC2893164, “Structural Basis of Gate-DNA Breakage and Resealing by Type II Topoisomerases” come the findings set out here.

The target of this data set is ParC55 (topoisomerase IV ParC breakage-reunion domain);ParE30 (topoisomerase IV ParE TOPRIM domain) (Streptococcus pneumoniae;Streptococcus …, UniProt P72525;Q59961 1-488;404-647, |). In words: X-ray crystallography (3.1 A); PD 0305970 (two intercalated), Mg2+; cleaved DNA, covalent Tyr118; Complex: 20 mM Tris-HCl pH 7.0, 200 then 75 mM NaCl, 10% glycerol, 1 mM b-mercaptoethanol, 20 mM MgCl2, 0.05% NaN3, PD 0305970, room temperature; crystals: 50 mM Na cacodylate pH 6.5, 2.5% Tacsimate pH 7.0, 62.5 mM KCl, 7.5 mM MgCl2, 4-6% isopropanol; data at 100 K. The conditions noted are these: protein: recombinant;recombinant; tags: C-terminal His tag;N-terminal His tag; chain copies: 2;2; blunt.
Chain of ParC55 (topoisomerase IV ParC breakage-reunion domain);ParE30 (topoisomerase IV ParE TOPRIM domain) (P72525 1-488, chain 1 of 2): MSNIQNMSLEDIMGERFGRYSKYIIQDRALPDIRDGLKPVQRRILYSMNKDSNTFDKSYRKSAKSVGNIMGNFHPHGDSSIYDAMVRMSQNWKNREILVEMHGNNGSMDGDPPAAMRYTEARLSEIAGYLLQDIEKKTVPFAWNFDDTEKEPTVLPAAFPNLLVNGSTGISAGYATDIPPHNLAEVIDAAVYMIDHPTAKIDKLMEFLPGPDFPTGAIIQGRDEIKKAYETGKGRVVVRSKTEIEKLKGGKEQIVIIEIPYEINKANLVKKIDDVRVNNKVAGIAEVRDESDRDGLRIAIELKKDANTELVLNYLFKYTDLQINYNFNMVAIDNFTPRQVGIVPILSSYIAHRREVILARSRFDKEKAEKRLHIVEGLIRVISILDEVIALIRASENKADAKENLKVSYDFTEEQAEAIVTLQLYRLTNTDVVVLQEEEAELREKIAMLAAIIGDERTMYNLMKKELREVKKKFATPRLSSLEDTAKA
Chain of ParC55 (topoisomerase IV ParC breakage-reunion domain);ParE30 (topoisomerase IV ParE TOPRIM domain) (Q59961 404-647, chain 2 of 2): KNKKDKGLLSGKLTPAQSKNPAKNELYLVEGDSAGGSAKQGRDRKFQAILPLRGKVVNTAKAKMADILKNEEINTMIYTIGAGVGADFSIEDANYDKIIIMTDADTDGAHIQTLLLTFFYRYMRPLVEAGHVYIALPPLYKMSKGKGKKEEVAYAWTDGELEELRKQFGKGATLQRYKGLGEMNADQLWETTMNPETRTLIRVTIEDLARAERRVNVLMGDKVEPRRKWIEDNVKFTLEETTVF

B1: 34-bp E-site G-segment DNA (dsDNA)
DNA 1: ACCAAGGTCATGAATGACTATGCACGTAAAACAG
DNA 2: CTGTTTTACGTGCATAGTCATTCATGACCTTGGT
modifications: none (cleaved with 4-bp stagger in the complex, or resealed, by row)
For B1, the binding result is reported as “binds”.
